From patent US20240190915A1 (KLINIKUM RECHTS DER ISAR DER TECHNISCHEN UNIVERSIT T M NCHEN, published 2024)
Where a chain is given by its changes, count along the chain named. Values belong to the binder of their own block, whether it stands above or below them.

Experiments:
[1] = target: Polr2a (mouse, endogenous) (mouse, UniProt P08775 1-1970); assay: co-IP, endogenous proteins, mouse pancreatic tissue
[2] = target: T1, AGR2 (human, endogenous in PDAC cells) (human, UniProt O95994 21-175, limits assumed); assay: co-IP competition in PDAC cells, dose-dependent inhibition of POLR2A-AGR2 binding
T1 construct: Endogenous protein co-immunoprecipitated from Capan2 cell lysate
T1 sequence (looked up): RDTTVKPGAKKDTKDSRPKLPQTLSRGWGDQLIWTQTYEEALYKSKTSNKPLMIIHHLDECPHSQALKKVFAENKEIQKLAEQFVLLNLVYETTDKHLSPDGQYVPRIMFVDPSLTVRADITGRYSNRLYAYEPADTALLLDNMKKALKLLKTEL

[3] = target: T1, AGR2 (human, endogenous in PDAC cells); assay: co-IP competition in Capan2 cells (FIG. 5B)

- binding result [1]: binds
B1: Agr2 (mouse, endogenous) (other)
chain: T1 sequence (looked up) with R1K, P7S, T13P, K44R, K50R, I54V, N74H, M109V, A135S, L141Y
notes: Endogenous protein co-immunoprecipitated from mouse pancreatic tissue lysate

- binding result [2]: binds
B2: hexapeptide PTTIYY (SEQ ID NO:4) (peptide)
peptide: PTTIYY
notes: Synthetic, previously described peptide used as positive control; liposome-encapsulated form; also called bioactive hexapeptide; positive control

- binding result [3]: binds
B3: hexapeptide NTAIYY (SEQ ID NO:2) (peptide)
peptide: NTAIYY
notes: also called bioactive hexapeptide
